In patent publication US20200360435A1 (published 2020):

Target: HTLV-1 Tax peptide on HLA-A*24:02 (human)
Assay: multimer staining

Binder	binding result
TCR7-2 (TCR, V domains shown) Valpha: KQEVTQIPAALSVPEGENLVLNCSFTDSAIYNLQWFRQDPGKGLTSLLLIQSSQREQTSGRLNASLDKSSGRSTLYIAASQPGDSATYLCAVSRGNARLMFGDGTQLVVKP Vbeta: DTGVSQDPRHKITKRGQNVTFRCDPISEHNRLYWYRQTLGQGPEFLTYFQNEAQLEKSRLLSDRFSAERPKGSFSTLEIQRTEQGDSAMYLCASAEDRGEKLFFGSGTQLSVL	recognises
TCR7-3 (TCR, V domains shown) Valpha: KQEVTQIPAALSVPEGENLVLNCSFTDSAIYNLQWFRQDPGKGLTSLLLIQSSQREQTSGRLNASLDKSSGRSTLYIAASQPGDSATYLCAVSRGNNRLAFGKGNQVVVIP Vbeta: DTGVSQDPRHKITKRGQNVTFRCDPISEHNRLYWYRQTLGQGPEFLTYFQNEAQLEKSRLLSDRFSAERPKGSFSTLEIQRTEQGDSAMYLCASSPDRADTQYFGPGTRLTVL	recognises
